Test results published in PMC3460915, “Identification, Characterization and Application of a G-Quadruplex Structured DNA Aptamer against Cancer Biomarker Protein Anterior Gradient Homolog 2”.

Legend:
[1] = target: T1, GST-AGR2 (on GSH-Sepharose beads) (UniProt O95994 21-175); experiment: flow cytometry bead binding; 1x PBS (137 mM NaCl, 2.7 mM KCl, 10 mM Na2HPO4, 2.0 mM KH2PO4), pH 7.4, 37 C, 45 min, 200 uL; K+ varied in Fig 4; conditions: protein: recombinant, (pGEX-GST-AGR2)
Thrombin = Thrombin (UniProt P00734;P00734 328-363;364-622); experiment: SA-bead flow cytometry (allosteric beacon); 500 nM; SA beads; 1x PBS (137 mM NaCl, 2.7 mM KCl, 10 mM Na2HPO4, 2.0 mM KH2PO4), pH 7.4, 37 C, 45 min, 200 uL; K+ varied in Fig 4
[2] = target: T1, GST-AGR2 (on GSH-Sepharose beads); experiment: SA-bead flow cytometry (allosteric beacon); SA beads; 100 nM AGR2 detected; 1x PBS (137 mM NaCl, 2.7 mM KCl, 10 mM Na2HPO4, 2.0 mM KH2PO4), pH 7.4, 37 C, 45 min, 200 uL; K+ varied in Fig 4; conditions: protein: recombinant; (pGEX-GST-AGR2); label: 3' FAM; hairpin
Streptavidin (SA beads) = Streptavidin (SA beads) (UniProt P22629 25-183); experiment: SA-bead flow cytometry (allosteric beacon); with AGR2; 1x PBS (137 mM NaCl, 2.7 mM KCl, 10 mM Na2HPO4, 2.0 mM KH2PO4), pH 7.4, 37 C, 45 min, 200 uL; K+ varied in Fig 4; conditions: protein: commercial; chain copies: 4; label: 3' FAM; hairpin
[3] = target: GST (on GSH-Sepharose beads) (UniProt P08515 1-218); experiment: flow cytometry bead binding; 1x PBS (137 mM NaCl, 2.7 mM KCl, 10 mM Na2HPO4, 2.0 mM KH2PO4), pH 7.4, 37 C, 45 min, 200 uL; K+ varied in Fig 4; conditions: protein: recombinant; chain copies: 2; label: FAM
[4] = target: T1, GST-AGR2 (on GSH-Sepharose beads); experiment: flow cytometry bead binding; with K+; 1x PBS (137 mM NaCl, 2.7 mM KCl, 10 mM Na2HPO4, 2.0 mM KH2PO4), pH 7.4, 37 C, 45 min, 200 uL; K+ varied in Fig 4; conditions: protein: recombinant; (pGEX-GST-AGR2); label: 3' FAM; intramolecular parallel G4

T1 sequence (O95994 21-175): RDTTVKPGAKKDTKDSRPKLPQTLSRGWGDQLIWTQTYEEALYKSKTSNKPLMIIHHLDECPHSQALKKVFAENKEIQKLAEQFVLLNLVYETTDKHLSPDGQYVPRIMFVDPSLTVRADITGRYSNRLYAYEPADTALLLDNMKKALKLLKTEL
Sequence of Streptavidin (SA beads) (P22629 25-183): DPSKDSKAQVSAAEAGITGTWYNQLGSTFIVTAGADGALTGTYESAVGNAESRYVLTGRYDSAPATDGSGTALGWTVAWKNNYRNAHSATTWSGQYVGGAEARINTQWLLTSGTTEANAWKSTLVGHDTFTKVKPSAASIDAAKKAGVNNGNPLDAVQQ
Sequence of GST (on GSH-Sepharose beads) (P08515 whole entry): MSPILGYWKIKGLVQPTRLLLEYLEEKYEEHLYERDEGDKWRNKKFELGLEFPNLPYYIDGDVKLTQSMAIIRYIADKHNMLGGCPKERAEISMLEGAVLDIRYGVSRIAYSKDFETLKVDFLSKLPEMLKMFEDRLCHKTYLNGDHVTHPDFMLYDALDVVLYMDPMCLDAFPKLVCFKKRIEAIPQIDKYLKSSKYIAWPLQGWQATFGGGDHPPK

B1: C14D (ssDNA)
DNA: TCTCGGACGCGTGTGGTCGGTGCATTCTTCTGTTCTTTTAGTGTTTTGTGTTGTATGTTCTTATCCTCGCTGCCTGGCCCTAGAGTG
With B1 the Kd ([1]; label: FAM) was 48.4 ± 15.6 nM.

B2: AGR2-aMB (structured_DNA)
DNA: CGACGCACCGATCGCAGGTTCGGGATTTTCGGGTGGGAGTTGTGGGGGGGGGTGGGAGGGTT
B2: no binding (Thrombin); binds [2]; binds (Streptavidin (SA beads)).

B3: C14B0 (ssDNA)
DNA: CGGGTGGGAGTTGTGGGGGGGGGTGGGAGGGTTCTTTGTTTGATCTTTCTCGCTGCCTGGCCCTAGAGTG
Binder B3 has a Kd ([1]; label: FAM) of 8.5 ± 3.6 nM.

B4: C14B (ssDNA)
DNA: TCTCGGACGCGTGTGGTCGGGTGGGAGTTGTGGGGGGGGGTGGGAGGGTTCTTTGTTTGATCTTTCTCGCTGCCTGGCCCTAGAGTG
In the case of B4, the binding result [3] is reported as “no binding” and the Kd ([1]; label: FAM) is reported as 13.1 ± 7.2 nM.

B5: C14C (ssDNA)
DNA: TCTCGGACGCGTGTGGTCGGCGTTGGGTGGGGGTGGCGGGGGTAGGGTGGTAGGTCGCTAAAATGCTCGCTGCCTGGCCCTAGAGTG
For B5, the Kd ([1]; label: FAM) was 44.6 ± 7 nM.

B6: C14A (ssDNA)
DNA: TCTCGGACGCGTGTGGTCGGGGGGGCGGGGGTTGGGTGGTGGCTTCATTTTGTTTCACGTCGTCCTCGCTGCCTGGCCCTAGAGTG
Work on B6 yielded a Kd ([1]; label: FAM) of 20.9 ± 5.2 nM.

In the case of CGGGTGGGAGTTGTGGGGGGGGGTGGGAGGGTT (structured_DNA) [C14B1], the Kd ([1]; label: 3' FAM, intramolecular parallel G4) is reported as 19.1 ± 5.1 nM and the Kd [4] is reported as 6.2 ± 1.9 nM.
